In series [1] the test system is Saccharomyces cerevisiae. The series is described as follows: protein stability index of tFT-peptide fusion (C-terminal peptide) (PSI (0-1 scale)); higher = more stable (slower turnover). The protocol: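 MPS profiling in S. cerevisiae of the tFT-X12 degron library: putative degron peptides plus stable controls, 12 aa, fused to the C-terminus of a sfGFP-mCherry timer. Cells are FACS-sorted into 8 mCherry/sfGFP bins and deep-sequenced. PSI runs from 0 (unstable) to 1 (stable). Backgrounds are wild type, das1Δ and doa10Δ at 30 °C, and wild type, das1Δ, cdc34-1 and cdc53-1 at 37 °C; 2-3 technical replicates each.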

Series [2] deals with Saccharomyces cerevisiae. Described as above. To be noted: genetic background: wild type; temperature: 30 C.
The mark [3] stands for this setting: genetic background: cdc34-1, temperature: 37 C.
[4] abbreviates: genetic background: cdc53-1, temperature: 37 C.
The mark [5] stands for this setting: genetic background: das1 deletion, temperature: 30 C.
[6] abbreviates: genetic background: das1 deletion, temperature: 37 C.
[7] abbreviates: genetic background: doa10 deletion, temperature: 30 C.
[8] abbreviates: genetic background: wild type, temperature: 30 C.
Setting [9] is: genetic background: wild type, temperature: 37 C.

Protein stability index data for 15 sequences are collected here from the supplement of paper PMC10724198.

± gives the standard deviation of the averaged measurements.
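Also: PSI is a weighted mean of sequencing reads over stability bins, variants kept only with over 10 reads, mCherry proximal and sfGFP distal, peptide attached via GGGS linker.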

With SFLVFLYFFMVF, the protein stability index in series [1] (setting [3]) is 0.3637 ± 0.0027; in series [1] (setting [4]) it was 0.429 ± 0.058; in series [1] (setting [5]), 0.335 ± 0.038; in series [1] (setting [6]) it was 0.449 ± 0.02; in series [1] (setting [7]), 0.316 ± 0.016; in series [1] (setting [8]), 0.303 ± 0.034. Also, the protein stability index in series [1] (setting [9]) amounted to 0.446 ± 0.031; in series [2], 0.379 ± 0.013.
As to SGWGGGTWVKMG, the protein stability index in series [1] (setting [3]) is 0.537 ± 0.019; in series [1] (setting [4]), 0.721 ± 0.046; in series [1] (setting [5]), 0.662 ± 0.024; in series [1] (setting [6]), 0.76 ± 0.011; in series [1] (setting [7]), 0.113 ± 0.013; in series [1] (setting [8]) it was 0.12 ± 0.013. The figures for the protein stability index in series [1] (setting [9]) and in series [2] were 0.191 ± 0.018 and 0.3093 ± 0.0025, respectively.
On to SIQRKIRRMKEN, for which the protein stability index in series [1] (setting [3]) was 0.559 ± 0.093; in series [1] (setting [4]), 0.732 ± 0.046; in series [1] (setting [5]), 0.699 ± 0.048; in series [1] (setting [6]) it was 0.7 ± 0.014; in series [1] (setting [7]) it was 0.355 ± 0.017; in series [1] (setting [8]), 0.333 ± 0.054. For the same sequence, the figures for the protein stability index in series [1] (setting [9]) and in series [2] were 0.566 ± 0.0026 and 0.4687 ± 0.0016, respectively.
Take SIVDLFRLRSLS: the protein stability index in series [1] (setting [3]) was 0.643 ± 0.022; in series [1] (setting [4]), 0.722 ± 0.016; in series [1] (setting [5]), 0.684 ± 0.008; in series [1] (setting [6]) it was 0.7295 ± 0.0054; in series [1] (setting [7]) it was 0.264 ± 0.032; in series [1] (setting [8]) it was 0.298 ± 0.012. Further, the results for the protein stability index in series [1] (setting [9]) and in series [2] were 0.519 ± 0.0074 and 0.374 ± 0.12, respectively.
For SLALLFSFLLFL, the protein stability index is 0.504 ± 0.041 in series [1] (setting [3]); 0.404 ± 0.028 in series [1] (setting [4]); 0.448 ± 0.021 in series [1] (setting [5]); 0.536 ± 0.0096 in series [1] (setting [6]); 0.605 ± 0.056 in series [1] (setting [7]); 0.461 ± 0.015 in series [1] (setting [8]). Further, the protein stability index in series [1] (setting [9]) is 0.54 ± 0.042; in series [2], 0.438 ± 0.013.
With SLFPHIFFFFFA, the protein stability index amounted to 0.43487 ± 0.00035 in series [1] (setting [3]); 0.467 ± 0.015 in series [1] (setting [4]); 0.386 ± 0.036 in series [1] (setting [5]); 0.428 ± 0.0029 in series [1] (setting [6]); 0.343 ± 0.015 in series [1] (setting [7]); 0.295 ± 0.032 in series [1] (setting [8]). The protein stability index in series [1] (setting [9]) is 0.384 ± 0.0099; in series [2], 0.49 ± 0.013.
SLICLSVGVLLR: the protein stability index in series [1] (setting [3]) was determined as 0.128 ± 0.024; in series [1] (setting [4]) it was 0.181 ± 0.061; in series [1] (setting [5]), 0.189 ± 0.029; in series [1] (setting [6]), 0.337 ± 0.071; in series [1] (setting [7]), 0.205 ± 0.003; in series [1] (setting [8]), 0.188 ± 0.039. Also, the protein stability index in series [1] (setting [9]) is 0.258 ± 0.021; in series [2], 0.292 ± 0.0045.
For the sequence SLSSSFQFSSPS, the protein stability index amounted to 0.701 ± 0.035 in series [1] (setting [3]); 0.7506 ± 0.0045 in series [1] (setting [4]); 0.69 ± 0.051 in series [1] (setting [5]); 0.722 ± 0.026 in series [1] (setting [6]); 0.6672 ± 0.00083 in series [1] (setting [7]); 0.65 ± 0.032 in series [1] (setting [8]). Moreover, the protein stability index in series [1] (setting [9]) came out at 0.7357 ± 0.0029; in series [2] it was 0.726 ± 0.094.
For SPIGIFCFILCR, the protein stability index was determined as 0.0729 ± 0.011 in series [1] (setting [3]); 0.0462 ± 0.023 in series [1] (setting [4]); 0.153 ± 0.027 in series [1] (setting [5]); 0.211 ± 0.016 in series [1] (setting [6]); 0.176 ± 0.019 in series [1] (setting [7]); 0.147 ± 0.038 in series [1] (setting [8]). Moreover, the figures for the protein stability index in series [1] (setting [9]) and in series [2] were 0.157 ± 0.013 and 0.187 ± 0.049, respectively.
Turning to SPTQIPLWILAS, the protein stability index in series [1] (setting [3]) came out at 0.258 ± 0.0095; in series [1] (setting [4]) it was 0.394 ± 0.04; in series [1] (setting [5]) it was 0.308 ± 0.04; in series [1] (setting [6]) it was 0.4539 ± 0.0022; in series [1] (setting [7]) it was 0.102 ± 0.0074; in series [1] (setting [8]), 0.114 ± 0.014. In addition, the protein stability index in series [1] (setting [9]) worked out at 0.12 ± 0.015; in series [2], 0.186 ± 0.015.
For SRGRVLRLLLLV, the protein stability index stood at 0.303 ± 0.0055 in series [1] (setting [3]); 0.428 ± 0.013 in series [1] (setting [4]); 0.393 ± 0.025 in series [1] (setting [5]); 0.524 ± 0.0093 in series [1] (setting [6]); 0.0727 ± 0.011 in series [1] (setting [7]); 0.0574 ± 0.026 in series [1] (setting [8]). The protein stability index came out at 0.0678 ± 0.018 in series [1] (setting [9]) and 0.124 ± 0.0028 in series [2].
With SRRCGLFVFILF, the protein stability index in series [1] (setting [3]) was determined as 0.387 ± 0.042; in series [1] (setting [4]), 0.378 ± 0.028; in series [1] (setting [5]), 0.324 ± 0.041; in series [1] (setting [6]), 0.49 ± 0.021; in series [1] (setting [7]) it was 0.365 ± 0.008; in series [1] (setting [8]), 0.277 ± 0.03. The protein stability index in series [1] (setting [9]) turned out to be 0.471 ± 0.006; in series [2], 0.392 ± 0.03.
Consider SRSFFRRLLFCF, for which the protein stability index in series [1] (setting [3]) came out at 0.642 ± 0.033; in series [1] (setting [4]) it was 0.7705 ± 0.0056; in series [1] (setting [5]), 0.679 ± 0.022; in series [1] (setting [6]), 0.8141 ± 0.0018; in series [1] (setting [7]), 0.3352 ± 0.0008; in series [1] (setting [8]), 0.352 ± 0.0083. The protein stability index is 0.4821 ± 0.0037 in series [1] (setting [9]) and 0.396 ± 0.016 in series [2].
SSAPPTLHTRPS: the protein stability index is 0.642 ± 0.027 in series [1] (setting [3]); 0.7092 ± 0.0049 in series [1] (setting [4]); 0.662 ± 0.023 in series [1] (setting [5]); 0.686 ± 0.012 in series [1] (setting [6]); 0.664 ± 0.0071 in series [1] (setting [7]); 0.6631 ± 0.0044 in series [1] (setting [8]). The values for the protein stability index in series [1] (setting [9]) and in series [2] were 0.681 ± 0.0066 and 0.539 ± 0.059, respectively.
Take SSRRVVLPLLVA: the protein stability index in series [1] (setting [3]) was determined as 0.336 ± 0.057; in series [1] (setting [4]) it was 0.402 ± 0.0094; in series [1] (setting [5]) it was 0.309 ± 0.032; in series [1] (setting [6]) it was 0.481 ± 0.0058; in series [1] (setting [7]), 0.123 ± 0.011; in series [1] (setting [8]), 0.136 ± 0.033. The protein stability index in series [1] (setting [9]) was found to be 0.131 ± 0.027; in series [2], 0.202 ± 0.027.
